US6620914, “Transcription factor islet-brain 1 (IB1)” (Gerard)

Target: T1, IB1 280-714 (Rattus, UniProt Q9R237 SEQ:280-714)
T1 sequence: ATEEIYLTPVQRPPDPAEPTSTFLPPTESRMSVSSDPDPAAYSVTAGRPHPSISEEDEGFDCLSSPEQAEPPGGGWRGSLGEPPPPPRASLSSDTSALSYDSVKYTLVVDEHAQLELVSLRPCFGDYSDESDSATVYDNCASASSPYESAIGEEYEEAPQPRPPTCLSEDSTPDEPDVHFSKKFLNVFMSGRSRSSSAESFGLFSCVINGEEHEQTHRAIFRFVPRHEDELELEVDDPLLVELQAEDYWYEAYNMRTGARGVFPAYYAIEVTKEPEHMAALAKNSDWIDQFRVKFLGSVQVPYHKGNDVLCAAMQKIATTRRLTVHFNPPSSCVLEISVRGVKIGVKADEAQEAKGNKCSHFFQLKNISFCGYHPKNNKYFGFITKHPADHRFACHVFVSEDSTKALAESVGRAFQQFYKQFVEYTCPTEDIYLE
Assay: SouthWestern
Settings: tags: bacterially produced; label: 32P

B1: GTII (dsDNA)
DNA 1: GTAAAGGGTGTATTGATTGGATTACCATCAATACTCAGCTTCT
DNA 2: AGAAGCTGAGTATTGATGGTAATCCAATCAATACACCCTTTAC
B1: binds.
